This assay deals with mesothelin (UniProt Q13421 37-598, limits assumed). Nature of the assay: cell-based or functional assay.
mesothelin, sequence (Q13421 other isoform, or with tags, fused parts or gaps limits assumed): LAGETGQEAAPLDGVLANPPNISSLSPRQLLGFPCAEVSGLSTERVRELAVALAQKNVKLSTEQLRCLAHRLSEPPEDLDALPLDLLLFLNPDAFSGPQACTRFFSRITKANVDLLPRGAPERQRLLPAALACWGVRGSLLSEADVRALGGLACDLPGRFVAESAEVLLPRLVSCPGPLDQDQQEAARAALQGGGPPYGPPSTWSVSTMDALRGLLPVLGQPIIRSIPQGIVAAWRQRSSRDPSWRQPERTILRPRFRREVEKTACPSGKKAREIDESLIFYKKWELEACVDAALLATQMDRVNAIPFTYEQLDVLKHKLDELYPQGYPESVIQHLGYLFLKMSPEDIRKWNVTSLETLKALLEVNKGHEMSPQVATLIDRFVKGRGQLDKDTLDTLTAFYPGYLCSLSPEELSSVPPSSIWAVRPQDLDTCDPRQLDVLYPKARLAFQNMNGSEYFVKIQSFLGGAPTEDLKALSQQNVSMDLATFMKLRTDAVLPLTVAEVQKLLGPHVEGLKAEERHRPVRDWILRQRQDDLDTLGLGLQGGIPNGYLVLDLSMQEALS

B1: conjugate (II-1), a conjugate of compound (III-1) and the anti-mesothelin antibody 6A4 (antibody, V domains shown)
VH: QVHLVESGGGVVQPGRSLRLSCVASGITFRIYGMHWVRQAPGKGLEWVAVLWYDGSHEYYADSVKGRFTISRDNSKNTLYLQMNSLRAEDTAIYYCARDGDYYDSGSPLDYWGQGTLVTVSS
VL: EIVLTQSPATLSLSPGERATLSCRASQSVSSYLAWYQQKPGQAPRLLIYDASNRATGIPARFSGSGSGTDFTLTISSLEPEDFAVYYCQQRSNWPLTFGGGTKVEIK
modifications: lysine ε-amino groups thiolated with 2-iminothiolane and linked to the maleimide of tubulysin drug-linker compound (III-1); sites and chain not stated
With B1, the “EC50, inhibition of proliferation of N87 gastric cancer cells (3H thymidine incorporation assay)” value stood at 0.2 nM.

(Values after US20140227295A1 (Bristol-Myers Squibb, published 2014).)
